B1: TBC1 domain family member 22B (Homo sapiens), Q9NU19 (parent)
chain: MAAENSKQFWKRSAKLPGSIQPVYGAQHPPLDPRLTKNFIKERSKVNTVPLKNKKASSFHEFARNTSDAWDIGDDEEEDFSSPSFQTLNSKVALATAAQVLENHSKLRVKPERSQSTTSDVPANYKVIKSSSDAQLSRNSSDTCLRNPLHKQQSLPLRPIIPLVARISDQNASGAPPMTVREKTRLEKFRQLLSSQNTDLDELRKCSWPGVPREVRPITWRLLSGYLPANTERRKLTLQRKREEYFGFIEQYYDSRNEEHHQDTYRQIHIDIPRTNPLIPLFQQPLVQEIFERILFIWAIRHPASGYVQGINDLVTPFFVVFLSEYVEEDVENFDVTNLSQDMLRSIEADSFWCMSKLLDGIQDNYTFAQPGIQKKVKALEELVSRIDEQVHNHFRRYEVEYLQFAFRWMNNLLMRELPLRCTIRLWDTYQSEPEGFSHFHLYVCAAFLIKWRKEILDEEDFQGLLMLLQNLPTIHWGNEEIGLLLAEAYRLKYMFADAPNHYRR
partner: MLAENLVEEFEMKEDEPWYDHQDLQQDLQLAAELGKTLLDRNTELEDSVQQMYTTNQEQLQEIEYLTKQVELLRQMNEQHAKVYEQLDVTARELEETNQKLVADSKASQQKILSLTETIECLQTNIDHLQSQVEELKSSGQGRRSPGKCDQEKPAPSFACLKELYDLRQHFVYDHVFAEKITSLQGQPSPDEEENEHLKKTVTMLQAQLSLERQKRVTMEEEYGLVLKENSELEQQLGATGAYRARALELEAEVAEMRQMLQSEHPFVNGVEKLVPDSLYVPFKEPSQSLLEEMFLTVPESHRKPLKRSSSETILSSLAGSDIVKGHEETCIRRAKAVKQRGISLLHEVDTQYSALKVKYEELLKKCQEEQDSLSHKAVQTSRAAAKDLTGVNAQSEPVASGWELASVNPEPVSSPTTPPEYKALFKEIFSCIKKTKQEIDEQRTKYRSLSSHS
B2: TBC1 domain family member 22B (Homo sapiens), Q9NU19 (parent)
chain: B1 chain
partner: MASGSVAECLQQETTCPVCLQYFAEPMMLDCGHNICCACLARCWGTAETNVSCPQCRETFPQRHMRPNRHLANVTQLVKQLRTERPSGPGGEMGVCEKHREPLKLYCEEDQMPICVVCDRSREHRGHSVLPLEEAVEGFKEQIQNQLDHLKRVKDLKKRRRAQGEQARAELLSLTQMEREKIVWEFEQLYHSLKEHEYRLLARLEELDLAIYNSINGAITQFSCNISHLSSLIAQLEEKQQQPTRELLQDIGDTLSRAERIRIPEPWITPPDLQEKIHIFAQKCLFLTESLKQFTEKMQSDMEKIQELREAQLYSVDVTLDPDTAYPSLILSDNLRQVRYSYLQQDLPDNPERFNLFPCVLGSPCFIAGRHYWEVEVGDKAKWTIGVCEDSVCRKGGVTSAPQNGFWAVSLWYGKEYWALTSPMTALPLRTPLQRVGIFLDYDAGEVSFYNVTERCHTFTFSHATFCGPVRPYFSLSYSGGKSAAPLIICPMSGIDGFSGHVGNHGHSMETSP
B3: TBC1 domain family member 22B (Homo sapiens), Q9NU19 (parent)
chain: B1 chain
partner: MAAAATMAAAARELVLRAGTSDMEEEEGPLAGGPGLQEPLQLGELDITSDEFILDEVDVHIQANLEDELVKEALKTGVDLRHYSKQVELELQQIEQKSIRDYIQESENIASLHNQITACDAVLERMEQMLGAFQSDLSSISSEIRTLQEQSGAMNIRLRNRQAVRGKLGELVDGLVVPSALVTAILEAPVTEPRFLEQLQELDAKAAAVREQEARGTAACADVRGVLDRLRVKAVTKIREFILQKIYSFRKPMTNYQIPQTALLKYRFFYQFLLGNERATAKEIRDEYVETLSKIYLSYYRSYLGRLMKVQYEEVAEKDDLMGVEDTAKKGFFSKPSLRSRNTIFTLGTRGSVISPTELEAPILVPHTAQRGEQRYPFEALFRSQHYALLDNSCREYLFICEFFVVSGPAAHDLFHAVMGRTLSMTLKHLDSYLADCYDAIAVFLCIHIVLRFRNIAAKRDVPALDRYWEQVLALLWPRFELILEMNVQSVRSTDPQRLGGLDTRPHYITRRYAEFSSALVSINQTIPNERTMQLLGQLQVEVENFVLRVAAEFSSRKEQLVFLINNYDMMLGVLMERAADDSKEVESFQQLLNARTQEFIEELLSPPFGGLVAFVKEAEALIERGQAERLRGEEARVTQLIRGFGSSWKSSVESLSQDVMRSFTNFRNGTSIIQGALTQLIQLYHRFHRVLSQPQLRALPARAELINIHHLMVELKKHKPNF
B4: TBC1 domain family member 22B (Homo sapiens), Q9NU19 (parent)
chain: B1 chain
partner: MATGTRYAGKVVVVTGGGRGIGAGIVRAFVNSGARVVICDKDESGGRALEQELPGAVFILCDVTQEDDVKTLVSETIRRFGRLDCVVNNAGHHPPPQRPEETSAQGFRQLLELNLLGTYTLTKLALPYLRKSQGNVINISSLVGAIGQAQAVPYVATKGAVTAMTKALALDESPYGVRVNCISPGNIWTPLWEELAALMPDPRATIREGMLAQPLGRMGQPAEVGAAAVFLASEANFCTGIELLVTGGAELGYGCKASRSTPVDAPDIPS
B5: TBC1 domain family member 22B (Homo sapiens), Q9NU19 (parent)
chain: B1 chain
partner: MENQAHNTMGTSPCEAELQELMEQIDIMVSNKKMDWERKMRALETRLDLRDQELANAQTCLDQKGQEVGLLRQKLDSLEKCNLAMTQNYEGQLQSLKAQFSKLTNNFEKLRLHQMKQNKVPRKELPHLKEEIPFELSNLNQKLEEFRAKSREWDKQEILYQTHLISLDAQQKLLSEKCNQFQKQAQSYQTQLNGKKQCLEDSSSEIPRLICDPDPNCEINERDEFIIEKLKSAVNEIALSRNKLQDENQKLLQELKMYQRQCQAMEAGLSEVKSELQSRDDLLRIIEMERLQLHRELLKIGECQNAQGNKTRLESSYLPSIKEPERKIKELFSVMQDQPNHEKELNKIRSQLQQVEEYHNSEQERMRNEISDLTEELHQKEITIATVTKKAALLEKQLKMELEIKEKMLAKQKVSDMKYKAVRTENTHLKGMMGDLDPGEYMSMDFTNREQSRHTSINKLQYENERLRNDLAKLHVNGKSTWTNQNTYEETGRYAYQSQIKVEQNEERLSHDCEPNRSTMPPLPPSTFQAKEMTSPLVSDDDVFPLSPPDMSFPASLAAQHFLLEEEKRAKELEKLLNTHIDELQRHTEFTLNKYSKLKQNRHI
B6: TBC1 domain family member 22B (Homo sapiens), Q9NU19 (parent)
chain: B1 chain
partner: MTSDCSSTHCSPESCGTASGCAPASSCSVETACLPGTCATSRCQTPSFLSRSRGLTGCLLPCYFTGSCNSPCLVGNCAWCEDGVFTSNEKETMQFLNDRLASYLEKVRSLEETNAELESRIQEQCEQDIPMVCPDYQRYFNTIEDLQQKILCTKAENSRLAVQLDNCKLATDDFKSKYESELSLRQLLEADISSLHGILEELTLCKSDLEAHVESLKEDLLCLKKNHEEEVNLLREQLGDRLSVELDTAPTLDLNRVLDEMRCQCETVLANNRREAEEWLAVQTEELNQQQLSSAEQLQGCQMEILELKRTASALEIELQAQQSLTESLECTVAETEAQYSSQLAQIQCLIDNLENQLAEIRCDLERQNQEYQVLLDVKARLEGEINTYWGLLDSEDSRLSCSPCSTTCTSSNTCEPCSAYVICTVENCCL

Variants of: B1
Details: with cdr2_human CDR2, Q01850

effect of a mutation on the interaction	Variant
disrupting interaction strength	MAAENSKQFWKRSAKLPGSIQPVYGAQHPPLDPRLTKNFIKERSKVNTVPLKNKKASSFHEFARNTSDAWDIGDDEEEDFSSPSFQTLNSKVALATAAQVLENHSKLRVKPERSQSTTSDVPANYKVIKSSSDAQLSRNSSDTCLRNPLHKQQSLPLRPIIPLVARISDQNASGAPPMTVREKTRLEKFRQLLSSQNTDLDELRKCSWPGVPREVRPITWRLLSGYLPANTERRKLTLQRKREEYFGFIEQYYDSRNEEHHQDTYRQIHIDIPRTNPLIPLFQQPLVQEIFERILFIWAIRHPASGYVQGINDLVTPFFVVFLSEYVEEDVENFDVTNLSQDMLRSIETDSFWCMSKLLDGIQDNYTFAQPGIQKKVKALEELVSRIDEQVHNHFRRYEVEYLQFAFRWMNNLLMRELPLRCTIRLWDTYQSEPEGFSHFHLYVCAAFLIKWRKEILDEEDFQGLLMLLQNLPTIHWGNEEIGLLLAEAYRLKYMFADAPNHYRR [A349T]

Variants of: B2
Details: with tri27_human TRIM27, P14373

effect of a mutation on the interaction	Variant
disrupting interaction strength	MAAENSKQFWKRSAKLPGSIQPVYGAQHPPLDPRLTKNFIKERSKVNTVPLKNKKASSFHEFARNTSDAWDIGDDEEEDFSSPSFQTLNSKVALATAAQVLENHSKLRVKPERSQSTTSDVPANYKVIKSSSDAQLSRNSSDTCLRNPLHKQQSLPLRPIIPLVARISDQNASGAPPMTVREKTRLEKFRQLLSSQNTDLDELRKCSWPGVPREVRPITWRLLSGYLPANTERRKLTLQRKREEYFGFIEQYYDSRNEEHHQDTYRQIHIDIPRTNPLIPLFQQPLVQEIFERILFIWAIRHPASGYVQGINDLVTPFFVVFLSEYVEEDVENFDVTNLSQDMLRSIETDSFWCMSKLLDGIQDNYTFAQPGIQKKVKALEELVSRIDEQVHNHFRRYEVEYLQFAFRWMNNLLMRELPLRCTIRLWDTYQSEPEGFSHFHLYVCAAFLIKWRKEILDEEDFQGLLMLLQNLPTIHWGNEEIGLLLAEAYRLKYMFADAPNHYRR [A349T]

Variants of: B3
Details: with vps52_human VPS52, Q8N1B4

effect of a mutation on the interaction	Variant
disrupting interaction strength	MAAENSKQFWKRSAKLPGSIQPVYGAQHPPLDPRLTKNFIKERSKVNTVPLKNKKASSFHEFARNTSDAWDIGDDEEEDFSSPSFQTLNSKVALATAAQVLENHSKLRVKPERSQSTTSDVPANYKVIKSSSDAQLSRNSSDTCLRNPLHKQQSLPLRPIIPLVARISDQNASGAPPMTVREKTRLEKFRQLLSSQNTDLDELRKCSWPGVPREVRPITWRLLSGYLPANTERRKLTLQRKREEYFGFIEQYYDSRNEEHHQDTYRQIHIDIPRTNPLIPLFQQPLVQEIFERILFIWAIRHPASGYVQGINDLVTPFFVVFLSEYVEEDVENFDVTNLSQDMLRSIETDSFWCMSKLLDGIQDNYTFAQPGIQKKVKALEELVSRIDEQVHNHFRRYEVEYLQFAFRWMNNLLMRELPLRCTIRLWDTYQSEPEGFSHFHLYVCAAFLIKWRKEILDEEDFQGLLMLLQNLPTIHWGNEEIGLLLAEAYRLKYMFADAPNHYRR [A349T]

Variants of: B4
Details: with dhb14_human HSD17B14, Q9BPX1

effect of a mutation on the interaction	Variant
disrupting interaction strength	MAAENSKQFWKRSAKLPGSIQPVYGAQHPPLDPRLTKNFIKERSKVNTVPLKNKKASSFHEFARNTSDAWDIGDDEEEDFSSPSFQTLNSKVALATAAQVLENHSKLRVKPERSQSTTSDVPANYKVIKSSSDAQLSRNSSDTCLRNPLHKQQSLPLRPIIPLVARISDQNASGAPPMTVREKTRLEKFRQLLSSQNTDLDELRKCSWPGVPREVRPITWRLLSGYLPANTERRKLTLQRKREEYFGFIEQYYDSRNEEHHQDTYRQIHIDIPRTNPLIPLFQQPLVQEIFERILFIWAIRHPASGYVQGINDLVTPFFVVFLSEYVEEDVENFDVTNLSQDMLRSIETDSFWCMSKLLDGIQDNYTFAQPGIQKKVKALEELVSRIDEQVHNHFRRYEVEYLQFAFRWMNNLLMRELPLRCTIRLWDTYQSEPEGFSHFHLYVCAAFLIKWRKEILDEEDFQGLLMLLQNLPTIHWGNEEIGLLLAEAYRLKYMFADAPNHYRR [A349T]

Variants of: B5
Details: with deup1_human DEUP1, Q05D60

effect of a mutation on the interaction	Variant
disrupting interaction strength	MAAENSKQFWKRSAKLPGSIQPVYGAQHPPLDPRLTKNFIKERSKVNTVPLKNKKASSFHEFARNTSDAWDIGDDEEEDFSSPSFQTLNSKVALATAAQVLENHSKLRVKPERSQSTTSDVPANYKVIKSSSDAQLSRNSSDTCLRNPLHKQQSLPLRPIIPLVARISDQNASGAPPMTVREKTRLEKFRQLLSSQNTDLDELRKCSWPGVPREVRPITWRLLSGYLPANTERRKLTLQRKREEYFGFIEQYYDSRNEEHHQDTYRQIHIDIPRTNPLIPLFQQPLVQEIFERILFIWAIRHPASGYVQGINDLVTPFFVVFLSEYVEEDVENFDVTNLSQDMLRSIETDSFWCMSKLLDGIQDNYTFAQPGIQKKVKALEELVSRIDEQVHNHFRRYEVEYLQFAFRWMNNLLMRELPLRCTIRLWDTYQSEPEGFSHFHLYVCAAFLIKWRKEILDEEDFQGLLMLLQNLPTIHWGNEEIGLLLAEAYRLKYMFADAPNHYRR [A349T]

Variants of: B6
Details: with KRT40, Q6A162

effect of a mutation on the interaction	Variant
disrupting interaction strength	MAAENSKQFWKRSAKLPGSIQPVYGAQHPPLDPRLTKNFIKERSKVNTVPLKNKKASSFHEFARNTSDAWDIGDDEEEDFSSPSFQTLNSKVALATAAQVLENHSKLRVKPERSQSTTSDVPANYKVIKSSSDAQLSRNSSDTCLRNPLHKQQSLPLRPIIPLVARISDQNASGAPPMTVREKTRLEKFRQLLSSQNTDLDELRKCSWPGVPREVRPITWRLLSGYLPANTERRKLTLQRKREEYFGFIEQYYDSRNEEHHQDTYRQIHIDIPRTNPLIPLFQQPLVQEIFERILFIWAIRHPASGYVQGINDLVTPFFVVFLSEYVEEDVENFDVTNLSQDMLRSIETDSFWCMSKLLDGIQDNYTFAQPGIQKKVKALEELVSRIDEQVHNHFRRYEVEYLQFAFRWMNNLLMRELPLRCTIRLWDTYQSEPEGFSHFHLYVCAAFLIKWRKEILDEEDFQGLLMLLQNLPTIHWGNEEIGLLLAEAYRLKYMFADAPNHYRR [A349T]

Reference: IntAct's records for PubMed 29892012
